Laboratory results reported in the DeepSol protein solubility set.

Assay: soluble on expression in E. coli; label from the status in PepcDB or PDB records

Sequence | soluble on expression in E. coli
EIDGTTYVDGGLFKDLPASVIREDCRYLIGVHLNPKEPSDYKKSLFGIAERCFGYIFRANSLPDRKLCDLLIESREIIKFKPFHVEPAEEIAAFGYKMAKQVLKTTSITRNP | not soluble
EIRLSNTQQTYAFLKKRLRDYKNETFAALFLDNQHRIIAYEELFSGTINTATVYPRPIVERVLQLNAAALILAHNHPSGLSDASQQDLAITERIRDALDLVDARLLDHIVIGDNEVYSIFAENKWVCN | not soluble
EKALSKQYLQTAKDKITSLKNLKVIAITGSFGKTSTKNFLLQILQTTFNAHASPKSVNTLLGLANDINQNLDDRSEIYIAEAGARNKGDIKEITCLIEPHLVVVAEVGEQHLEYFKTLENICETKAELLDSKRLEKAFCYSVEKIKPYAPKDSPLIDYSSLVKNIQSTLKGTSFEMLIGSVWERFETKVLGEFSAYNIASAILIAKHLGLETERIKRLVLELNPIAHRLQLLEVNQKIIIDDSFNGNLKGMLEGIRLASLHKGRKVIVTPGLVESNTESNEALAQKIDGVFDVAIITGELNSKTIASQLKTPQKILLKDKAQLENILQATTIQGDLILFANDAPNYI | not soluble
EKKRIESLINNMYDPVIGLDENLKILFVNEQAIKIIGISQEELIGHYTQELAIKNDLVRTLVQDLMVAENTPSNKAIPIKIYSNNKEGYFEKEILHISVTPTGEQVKQLIGHVIILRNIT | not soluble
ELGIKRESKLEFKLWYDDEKTPEALVFVVQGMGDDISSIQYVGDYMVRQFNTAVVGVNYHCIGNRPQTGSSFFMDDIDKLILKASCEAADIKLPYDVDKIQDYKAMSEIFHFVNNQIVEGKQKGNFTPNYFLNLHVSLQPTKNEYQNFGIMQAQDLLNVALYLKKHAPFDTMGGGIPIIMIGGSHGGYLAHLAAKIAPWLVDGVLDNSAYAKFLWRVVGFGKEIDFMQYSEFATFDFFHHIKTHCSTKTFWTSNSSSPRFFSPARRKIRNLLEEDHLLKQSKCLKTCFISYHSLYDEYVSLKEKTMFYEELEKLGFDVTLHSIT | not soluble
ENPRNVGSLDKTSKNVGTGLVGAPACGDVMKLQIQVDEKGKIVDARFKTFGCGSAIASSSLATEWVKGKTVEEALTIKNTDIAKELCLPPVKLHCSMLAEDAIKAALADYKLKQESK | soluble
EPEQVIRKYTEELKVAPEEDCIICMEKLAVASGYSDMTDSKALGPMVVGRLTKCSHAFHLLCLLAMYCNGNKDGSLQCPSCKTIYGEKTGTQPWGKMEVFR | soluble
EPPDGKAISDGFNLLQELSAVNRENQLTPLGRQLARLPVDPRMGRMLLEAAKQGSLQEVLIVASAMSVQDVRERPPERQQAADQAHAQWKDAD | not soluble
EPVVVSAADGEIRTGNDHLCDLLDSDPSDVFGSQIGTFFPGLDDVDLRAHCSQSPGTPLTSSCSAGGTERWVEIAFEPQQWDG | not soluble
EQEVSLDLILVEEYDSLIEKMSNWNFPIFELVEKMGEKSGRILSQVMYTLFQDTGLLEIFKIPTQQFMNYFRALENGYRDIPYHNRIHATDVLHAVWYLTTRPVPGLQQIHNGCGTGNETDSDGRINHGRIAYISSKSCSNPDESYGCLSSNIPALELMALYVAAAMHDYDHPGRTNAFLVATNAPQAVLYNDRSVLENHHAASAWNLYLSRPEYNFLLHLDHVEFKRFRFLVIEAILATDLKKHFDFLAEFNAKANDVNSNGIEWSNENDRLLVCQVCIKLADINGPAKVRDLHLKWTEGIVNEFYEQGDEEANLGLPISPFMDRSSPQLAKLQESFITHIVGPLCNSYDAAGLLPGQWLEAEEDNDTESGDDEDGEELDTEDEEMENNLNPKPPRRKSRRRIFCQLMHHLTENHKIWK | soluble
EQPKCNVRVVEMTYTTVGVVGEATRASGVVLVPDGPQCPGPYPVLGWGRDGQTFRRSEQAKSIISAKGDDPLVTRLASQGYVVVGTDYLGLGGSNYPYHPYLHANSEASALIDALRASRTVLQHLNTPLSNKLMLSGFSQGGHTAMATQREIEAHLSNE | not soluble
EQSAYRIHSAYMVGGGGSITRDTYLSPLRYGGWTLNLLGEKTFPLKASDSRWMIRTGHELDFALMDNPANNAHFYSLLYNGSAAALYRLGAKHLRAAWMDNLRLAFGPGLEIGLGGIYSTRNGNNPATLKLYTNAIAQASIGYYVPSETFPLYFRLLSQINLFGIAYGNGFGESYYENFLLNNGIAGSLHFTYPGKFTRFTTLITADIPIRNFCTLRVGYRYSHLGSSLNALDTRIHSHTAFIGFVTEFYRFRGRKAMNTGRRTSLYYHD | not soluble
ERSAVQLSLSSRLQLTLYQYKTCPFCSKVRAFLDFHALPYQVVEVNPVLRAEIKFSSYRKVPILVAQEGESSQQLNDSSVIISALKTYLVSGQPLEEIITYYPAMKAVNDQGKEVTEFGNKYWLMLNEKEAQQVYSGKEARTEEMKWRQWADDWLVHLISPNVYRTPTEALASFDYIVREGKFGAVEGAVAKYMGAAAMYLISKRLKSRHRLQDNVREDLYEAADKWVAAVGKDRPFMGGQKPNLADLAVYGVLRVMEGLDAFDDLMQHTHIQPWYLRVERAITEASPAH | soluble
EVPDLPEEPSETAEEVVTVALRCPNGRVLRRRFFKSWNSQVLLDWMMKVGYHKSLYRLSTSFPRRALEVEGGSSLEDIGITVDTVLNVEEKEQSSQ | soluble
EVPDYLCCNITLEIFRDPVISPSGVTYERAAILEHLKKVGKFDPITREKIDPANLVPNLAIKEAVAAYLEKHVWAYKMGC | soluble
EVQLLESGGGLVQPGGSLRLSCAASGFTFEEYAMLWVRQAPGKGLEWVSGINARGYTTYYADSVKGRFTISRDNSKNTLYLQMNSLRTEDTAVYYCAKPWYPFMASKGSEFDYWGQGTLVTVSSAAALEIKRASQPELAPEDPEDVEHHHHHH | soluble
EVQLQESGPSLVKPSQTLSLTCSVTGEPITSGFWDWIRKFPGNKLEFMGYIRYGGGTYYNPSLKSPISITRDTSKNHYYLQLNSVVTEDTATYYCARSRDYYGSSGFAFWGEGTLVTVSAAKTTPPSVYPLAPGCGDTTGSSVTLGCLVKGYFPESVTVTWNSGSLSSSVHTFPALLQSGLYTMSSSVTVPSSTWPSQTVTCSVAHPASSTTVDKKLE | soluble

Sequence | soluble on expression in E. coli
EVQLQQSGAELVRPGALVKLSCKASGFNIKDYYMHWVKQRPEQGLELIGWIDPENGNTIYDPKFQDKASITADTSSNTAYLQLSSLTSEDTAVYYCARDTAAYFDYWGQGTTLTVSSAKTTPPSVYPLAPGSAAQTNSMVTLGCLVKGYFPEPVTVTWNSGSLSSGVHTFPAVLQSDLYTLSSSVTVPSSTWPSETVTCNVAHPASSTKVDKKKIP | soluble
EVQLVESGGGLVQPGGSLRLSCAASGFTFSRYTMSWVRQAPGKGLEWVATISGGGHTYYLDSVKGRFTISRDNSKNTLYLQMNSLRAEDTAVYYCTRGFGDGGYFDVWGQGTLVTVSSAKTTPPSVYPLAPGSAAQTNSMVTLGCLVKGYFPEPVTVTWNSGSLSSGVHTFPAVLQSDLYTLSSSVTVPSSTWPSETVTCNVAHPASSTKVDKKIVPRDCHHHHHH | soluble
EVVVTGYGDFKKATYTGSASVLNTDKLESLPVVSVAQMMEANIPGLSSVASSSQPGSKATVRVRGIASMNASTEPLYVLDGVPVASRDMSGLSANASAGGLGLIETLNPADIESITVLKDAASASLYGAKGSNGVILI | not soluble
FAEDPSPYVLLDRDLTMIWANAAYLRATGLARDEVVGRRMFDVFPAEAESIPDQMLRASLRRAVEQGRPDHLPLIPYPIRNQDGRMEERFWSATNTPIKDAEGHVEFILQNTNDIT | not soluble
FNSSINNIHEMEIQLKDALEKNQQWLVYDQQREVYVKGLLAKIFELEKKTETAAHSLP | soluble
FQGAMDPEFSMKIGIIGAMEEEVTLLRDKIENRQTISLGGCEIYTGQLNGTEVALLKSGIGKVAAALGATLLLEHCKPDVIINTGSAGGLAPTLKVGDIVVSDEARYHDADVTAFGYEYGQLPGCPAGFKADDKLIAAAEACIAELNLNAVRGLIVSGDAFINGSVGLAKIRHNFPQAIAVEMEATAIAHVCHNFNVPFVVVRAISDVADQQSHLSFDEFLAVAAKQSSLMVESLVQKLAHG | soluble
GAACNVLFINSVEMESLTGPQAISKAVAETLVADPTPTATIVHFKVSAQGITLTDNQRKLFFRRHYPLNTVTFCDLDPQERKWTKTDGSGPAKLFGFVARKQGSTTDNVCHLFAELDPDQPAAAIVNFVSRVML | soluble
GAADKRIDGNGNPETREIKISDYDEITFVGSADFEYEQSDKAPYLSVTIDENLFDYLVTEVEGGTLKIYPKSIKKGFNNNSYDLRPTVYKIKSNSKELKELNTVGSGSFIISKPTKVNRMEINMAGSGNVELRGPVKGYKLECNMAGSGNIIAKDIQLDNLSCSLASSGEIEVIGTVDRASFNVAGSGEIKAFDCQARKAECNIASSGEISVYATQILDANIVGSGEIHYKGDPEISKSIMGSGSINKVK | soluble
GAMAFDWDAYLEETGSEAAPAKCFKQAQNPPNNDFKIGMKLEALDPRNVTSTCIATVVGVLGSRLRLRLDGSDSQNDFWRLVDSTEIHAIGHCEKNGGMLQPPLGFCMNASSWPGYLCKILNNAMVAPEEIFQPEPPEPEENLFKVGQKLEAVDKKNPQLICCATVDAIKDDQIHVTFDGWRGAFDYWCNYRSRDIFPAGWCARSCHPMQPPGHKSRMDSSSSKQRCPRPRYTVVAESEAMVPASPATAHFHPNCKGGPFINNSK | soluble
GAMEDKVDAIREAIARNPQEIFQYVRLSQVKRDDKVLGYRVSPGKDPVLFESIGLQDGDMAVALNGLDLTDPNVMNTLFQSMNEMTEMSLTVERDGQQHDVYIQF | soluble
GAMGPREVTMKKGDILTLLNSTNKDWWKVEVNDRQGFVPAAYVKKLDSGTGKELVLALYDYQESGDNAPSYSPPPPP | soluble
GAMGSEESLKHATRIIDEVVSKFLDDLGNAKSHLMSLYSACSSEVPPGPVDQKFQSIVIGCALEDQKKIKRRLETLLRNIDNSDKAIK | soluble
GAMGSMSVSEANGTETIKPPMNGNPYGPNPSDFLSRVNNFSIIESTLREGEQFANAFFDTEKKIQIAKALDNFGVDYIELTSPVASEQSRQDCEAICKLGLKCKILTHIRCHMDDARVAVETGVDGVDVVIGTSQYLRKYSHGKDMTYIIDSATEVINFVKSKGIEVRFSSEDSFRSDLVDLLSLYKAVDKIGVNRVGIADTVGCATPRQVYDLIRTLRGVVSCDIECHFHNDTGMAIANAYCALEAGATHIDTSILGIGERNGITPLGALLARMYVTDREYITHKYKLNQLRELENLVADAVEVQIPFNNYITGMCAFTHKAGIHAKAILANPSTYEILKPEDFGMSRYVHVGSRLTGWNAIKSRAEQLNLHLTDAQAKELTVRIKKLADVRTLAMDDVDRVLREYHADLSDADRITKEASA | soluble
GASALSLSLLSISRSGNTVTLIGDFPDEAAKAALMTALNGLLAPGVNVIDQIHVDPVVRSLDFSSAEPVFTASVPIPDFGLKVERDTVTLTGTAPSSEHKDAVKRAATSTWPDMKIVNNIEVTGQAPPGPPA | soluble
GGGVKAFAFIGALQVLEENGFSFTRVAGTSAGAIFASLVCSGYRSDELFSIMEQLDGKMFKDGGKVMPFPFAKWLRLYFKLGMYKGDQLEKWLIQVLGHKGVSTFADLPKGALKIVASDISRGRLIVLPDDLKDYGLIPERFSVARAVRMSCGIPYFFQPVKLYNRKRRGERSYVVDGGILSNFPIWL | not soluble
GGSSRHQFDLIMCLKQPGVQTGLLCEKCDGKCPICDSYVRPKRKVRVCENCSFGKQAKNCIICNLNVGVNDAFYCWECCRLGKDKDGCPRILNLGSNRLDRHFEKKKKV | soluble
